T1: human prokineticin receptor 1 (PKR1) (human)
T1 chain: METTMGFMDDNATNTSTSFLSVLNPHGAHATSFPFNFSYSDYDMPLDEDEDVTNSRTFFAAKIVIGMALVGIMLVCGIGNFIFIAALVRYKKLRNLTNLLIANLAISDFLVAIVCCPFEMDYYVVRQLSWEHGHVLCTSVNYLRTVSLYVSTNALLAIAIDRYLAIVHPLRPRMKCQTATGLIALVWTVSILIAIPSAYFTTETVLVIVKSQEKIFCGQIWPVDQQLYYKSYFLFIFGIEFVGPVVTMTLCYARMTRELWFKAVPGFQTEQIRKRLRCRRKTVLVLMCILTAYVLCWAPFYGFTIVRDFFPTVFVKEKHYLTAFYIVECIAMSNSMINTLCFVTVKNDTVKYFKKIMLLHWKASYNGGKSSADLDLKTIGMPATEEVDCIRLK


What was measured:
Assay in all cases: cell-based or functional assay
[1] = biological target: human prokineticin receptor 2 (PKR2) (human)
human prokineticin receptor 2 (PKR2) (human), sequence (chain, as listed by the source): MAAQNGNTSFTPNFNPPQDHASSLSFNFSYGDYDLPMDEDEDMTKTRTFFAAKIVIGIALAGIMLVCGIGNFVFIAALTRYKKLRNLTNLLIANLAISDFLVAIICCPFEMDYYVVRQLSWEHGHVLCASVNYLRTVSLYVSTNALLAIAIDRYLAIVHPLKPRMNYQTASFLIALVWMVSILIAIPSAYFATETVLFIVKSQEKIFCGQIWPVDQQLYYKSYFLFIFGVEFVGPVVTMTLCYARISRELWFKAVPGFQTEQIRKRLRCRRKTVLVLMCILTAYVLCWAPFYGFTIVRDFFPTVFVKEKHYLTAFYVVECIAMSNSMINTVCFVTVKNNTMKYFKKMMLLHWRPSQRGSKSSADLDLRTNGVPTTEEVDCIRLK

[2] = biological target: T1, human prokineticin receptor 1 (PKR1)
[3] = biological target: human prokineticin receptor 2 (PKR2) (human); remark: listed apart in the source
[4] = biological target: T1, human prokineticin receptor 1 (PKR1)

dissociation constant (Kb), Schild analysis of calcium mobilization [1] | dissociation constant (Kb), Schild analysis of calcium mobilization [2] | Antagonistic Activity of PK mutants (Calcium Mobilization Assay), nM; ligand PK1 [3] | Antagonistic Activity of PK mutants (Calcium Mobilization Assay), nM; ligand PK2 [3] | Antagonistic Activity of PK mutants (Calcium Mobilization Assay), nM; ligand PK1 [4] | Antagonistic Activity of PK mutants (Calcium Mobilization Assay), nM; ligand PK2 [4] | Binder
48.9 nM | 261 nM | 15 nM | 30 nM | 9 nM | 90 nM | Met PK1 (ligand) MAVITGACERDVQCGAGTCCAISLWLRGLRMCTPLGREGEECHPGSHKVPFFRKRKHHTCPCLPNLLCSRFPDGRYRCSMDLKNINF
37.8 nM | 116 nM | 16 nM | 29 nM | 6 nM | 110 nM | MV PK1 (ligand) MVITGACERDVQCGAGTCCAISLWLRGLRMCTPLGREGEECHPGSHKVPFFRKRKHHTCPCLPNLLCSRFPDGRYRCSMDLKNINF
